Reference: patent US20260209346A1 (LTZ THERAPEUTICS, published 2026)

T1: human CD79b recombinant protein (human, UniProt P40259 29-159)
T1 construct: also called human CD79b ECD antigen; recombinant human CD79b ECD
T1 sequence: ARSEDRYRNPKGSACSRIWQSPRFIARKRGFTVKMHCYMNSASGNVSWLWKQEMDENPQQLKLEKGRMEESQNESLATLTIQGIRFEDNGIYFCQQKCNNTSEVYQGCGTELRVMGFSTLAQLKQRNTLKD

T2: cynomolgus CD79b recombinant protein (cynomolgus)
T2 chain: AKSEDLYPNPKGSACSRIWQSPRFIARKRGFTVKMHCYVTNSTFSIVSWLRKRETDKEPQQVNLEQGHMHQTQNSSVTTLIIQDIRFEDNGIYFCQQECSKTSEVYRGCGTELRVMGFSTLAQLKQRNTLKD

T3: CD79b endogenously expressed on the cell surface (malignant B cell lines, normal B cells in PBMC, CLL … (human, UniProt P40259 29-229))
T3 construct: whole, on cells; On cells CD79b stands in the B-cell receptor complex with CD79a and surface Ig; also called cell surface CD79b; endogenous CD79b
T3 sequence (looked up): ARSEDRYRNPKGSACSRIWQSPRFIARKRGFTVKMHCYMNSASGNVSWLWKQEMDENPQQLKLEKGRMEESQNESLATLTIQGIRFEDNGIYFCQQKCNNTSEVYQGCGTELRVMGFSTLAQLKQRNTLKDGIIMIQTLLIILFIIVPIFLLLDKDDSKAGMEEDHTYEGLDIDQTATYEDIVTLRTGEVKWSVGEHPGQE


What was measured:
[1] = biological target: T1, human CD79b recombinant protein; test: ELISA, coated human CD79b recombinant protein
Procedure: (§1) Binding affinities of anti-CD79b antibodies to human and cynomolgus CD79b recombinant proteins were tested by ELISA. 1 ug/ml (in PBS buffer) of human or cynomolgus CD79b recombinant proteins were coated on an ELISA plate overnight. ELISA plates were washed and blocked with blocking buffer (PBS+1% BSA) followed by incubation with serially diluted anti-CD79b primary antibodies. Anti-CD79b antibody binding was quantified using an anti-human IgG HRP secondary antibody (Biolegend Catalog #410902) and HRP substrate.

[2] = biological target: T2, cynomolgus CD79b recombinant protein; test: ELISA, coated cynomolgus CD79b recombinant protein
Procedure: as §1

[3] = biological target: T1, human CD79b recombinant protein; test: ELISA on recombinant human CD79b ECD; A 450nm
[4] = biological target: T1, human CD79b recombinant protein; test: BLI, antibody captured on anti-human IgG Fc probes, human CD79b in solution, 1:1 model
Procedure: (§2) Binding affinities of anti-CD79b antibodies to human CD79b recombinant proteins were tested by BLI. 10 ug/ml of anti-CD79b antibodies were captured by anti-human IgG Fc probes (Gator Bio Catalog #160024). […] Absolute kD was determined by applying a 1:1 binding model (Global Rmax unlinked).

[5] = biological target: T3, CD79b endogenously expressed on the …; test: flow cytometry on BJAB cells; anti-human IgG1-PE; MFI (PE); table under the graph
Procedure: (§3) The binding affinities of anti-CD79b antibodies to malignant B cell lines were tested. […] The cells were then incubated with 100 μl anti-human IgG1-PE (Invitrogen, cat: 12-4998-82), 1:1000 dilution, for 30 min on ice, washed with 200 ul PBS for three times before flow cytometry analysis.

[6] = biological target: T3, CD79b endogenously expressed on the …; test: flow cytometry on Ramos cells; anti-human IgG1-PE; MFI (PE); table under the graph
Procedure: as §3

[7] = biological target: T3, CD79b endogenously expressed on the …; test: flow cytometry on Daudi cells; anti-human IgG1-PE; MFI (PE); table under the graph
Procedure: as §3

[8] = biological target: T3, CD79b endogenously expressed on the …; test: flow cytometry on Nalm-6 cells; anti-human IgG1-PE; MFI (PE); table under the graph
Procedure: as §3

[9] = biological target: T3, CD79b endogenously expressed on the …; test: flow cytometry on SU-DHL-4 cells; anti-human IgG1-PE; MFI (PE); table under the graph
Procedure: as §3

[10] = biological target: T3, CD79b endogenously expressed on the …; test: flow cytometry on PBMC of CLL Donor 0255 (B lymphocytes); PE goat anti-human IgG Fc; MFI PE
Procedure: To determine the binding affinities of the anti-CD79b antibodies to cell surface CD79b on Chronic Lymphocytic Leukemia (CLL) patient's B lymphocytes, a cell-based binding assay was conducted. […] CLL patient PBMCs were purchased from the company Bioscience. […] Specifically, 2.5×10⁴ PBMC cells in 50 μl FACS buffer (1×PBS+2% BSA+2 mM EDTA) were seeded in each well of a V bottom 96-well plate. […] The mixture was incubated on ice for 30 minutes, and then washed twice with FACS buffer. The cells were re-suspended in 100 μl FACS buffer containing PE conjugated goat anti-human IgG Fc (1:1000) and anti-human CD19 (BV421), and incubated for 30 minutes on ice in darkness. After washing twice with FACS buffer, the cells were re-suspended in 100 μl of FACS buffer and analyzed with a Cytek cytometer.

[11] = biological target: T3, CD79b endogenously expressed on the …; test: flow cytometry on a cell line expressing endogenous CD79b (not named on the sheet or in the text); MFI (PE)
[12] = biological target: T1, human CD79b recombinant protein; test: BLI; antibody at 10 ug/ml captured on anti-human IgG Fc probes, hCD79b in solution; same value printed in the rows for 18.3 and 9.14 nM hCD79b
Procedure: as §2

[13] = biological target: T3, CD79b endogenously expressed on the …; test: flow cytometry on PBMC of Donor 889, B cells marked with CD19-BV421; anti-human IgG1-PE; MFI (PE); table under the graph
Procedure: (§4) The binding affinities of anti-CD79b antibodies to endogenous B cells were tested. […] The cells were then incubated with […] mixture of anti-human IgG1-PE (Invitrogen, Cat #: 12-4998-82), 1:1000 dilution; CD19-BV421 (Biolegend, Cat #:302230, 1:400 dilution) for 30 min on ice, and washed with 200 ul PBS for three times before flow cytometry analysis.

[14] = biological target: T3, CD79b endogenously expressed on the …; test: flow cytometry on PBMC of Donor 356, B cells marked with CD19-BV421; anti-human IgG1-PE; MFI (PE); table under the graph
Procedure: as §4

[15] = biological target: T3, CD79b endogenously expressed on the …; test: flow cytometry on PBMC of Donor 2890, B cells marked with CD19-BV421; anti-human IgG1-PE; MFI (PE); table under the graph
Procedure: as §4

[16] = biological target: T3, CD79b endogenously expressed on the …; test: flow cytometry on PBMC of Donor 2235, B cells marked with CD19-BV421; anti-human IgG1-PE; MFI (PE); table under the graph
Procedure: as §4

| Binder | IC50 [1] [nM] | IC50 [2] [nM] | EC50 (read off the curve) [3] [nM] | Kd [4] [nM] | EC50 [5] [nM] | EC50 [6] [nM] | EC50 [7] [nM] | EC50 [8] [nM] | EC50 [9] [nM] | EC50 (read off the curve) [10] [nM] | EC50 (read off the curve) [11] [nM] | koff [12] [s⁻¹] | kon [12] [M⁻¹ s⁻¹] | EC50 [13] [nM] | EC50 [14] [nM] | EC50 [15] [nM] | EC50 [16] [nM] |
| --- | --- | --- | --- | --- | --- | --- | --- | --- | --- | --- | --- | --- | --- | --- | --- | --- | --- |
| ch57B9 (antibody, human IgG1, kappa, V domains shown, Rabbit/human chimeric IgG1 kappa; also called chimeric 57B9) VH: QSVRETGGGLVQPGGSLTLSCEASEFTINIDYWISWVRQAPGKGLEWIGIIDPGDGTTYFAIWVSGRFTITRNTNLNTVDLKMTSLTEADTATYFCAREVSASAYQYDLWGPGTLVTVSS VL: ALVMTQTPSSVSADVGGTVSINCQASEDIESYLAWYQQKPGQPPKLLIYFTSNLASGVPSRFKGSGSGTEYTLTISGVQPDDAATYYCQQGYRNSDVHNPFGGGTEVVVKR | 0.42 | 186 | ~0.1 | 0.239 | 0.91 | 1.3 | 1.22 | 1.73 | 0.89 | ~0.9 | ~0.3 | 8.8e-05 | 368000 |  |  |  |  |
| ch48H10 (antibody, human IgG1, kappa, V domains shown, Rabbit/human chimeric IgG1 kappa; also called chimeric 48H10) VH: QSVKETGGGLVQPGGSLTLSCKASGFTINIDYWISWVRQAPGKGLEWIGIIDPGDGTTYFAIWVSGRFTISTDNAQNTVDLQMNSLTAADTATYFCAREFSASAYQYDLWGPGTLVTVSS VL: ALVMTQTPSSVSAAVGGTVSINCQASEDIESYLTWYQQKPGQPPKLLMYRASTLSSGVSSRFSASGSGTEFTLTISGVQPDDAATYYCQQGYRNKDVDNPFGGGTEVVVKR | 0.6 | 65.3 | ~0.3 | 0.0314 | 0.98 | 1.32 | 1.38 | 2.69 | 0.98 | ~0.9 | ~0.4 | 1.09e-05 | 346000 | 0.154 | 0.446 | 1.17 | 0.272 |
| hu44G2 (antibody, V domains shown, Humanized antibody; also called humanized 44G2) VH: EQQLVETGGGLIQPGGSLRLSCAASGFTINIDYWISWVRQAPGKGLEWIGIIDPGDGTTYFAIWVSGRFTISFDNSKNTVYLQMNSLRAEDTAVYFCVREFSASAYQYDLWGPGTLVTVSS VL: ELVMTQSPATLSVSPGERATLSCRASEDIENYLAWYQQKPGQPPRLLIYRASTLSSGVPARFSGSGSGTEFTLTISSLQSEDFAVYYCQQGYRNSNVDNPFGGGTKVEIK |  |  | ~0.2 |  |  |  |  |  |  |  | ~0.2 |  |  |  |  |  |  |
| ch22D10 (antibody, human IgG1, kappa, V domains shown, Rabbit/human chimeric IgG1 kappa; also called chimeric 22D10) VH: QSVEESGGRLVTPGTPLTLTCTASGFTINDYHMNWVRQAPGKGLEWIGIISSNGDTYYASWAKGRFTISRTSTTVDLKMTSLTTEDTATYFCARDDRDRSYAFDPWGPGTLVTVSS VL: ALVMTQTPSSVSAAVGGTVTINCRASEDIERYLAWYQQKPGQRPKLLIYGASTLASGVPSRFKGSGSGTEYTLTISGVQPDDAATYYCHQGDSSRNVVNVFGGGTEVVVKR | 0.22 |  |  | 0.313 | 0.34 | 0.36 | 0.24 | 0.43 | 0.4 |  |  | 0.000106 | 338000 |  |  |  |  |

Now from value to binder:

| IC50 [1] [nM] | IC50 [2] [nM] | EC50 (read off the curve) [3] [nM] | Kd [4] [nM] | EC50 [5] [nM] | EC50 [6] [nM] | EC50 [7] [nM] | EC50 [8] [nM] | EC50 [9] [nM] | EC50 (read off the curve) [10] [nM] | EC50 (read off the curve) [11] [nM] | koff [12] [s⁻¹] | kon [12] [M⁻¹ s⁻¹] | EC50 [13] [nM] | EC50 [14] [nM] | EC50 [15] [nM] | EC50 [16] [nM] | Binder |
| --- | --- | --- | --- | --- | --- | --- | --- | --- | --- | --- | --- | --- | --- | --- | --- | --- | --- |
|  |  | ~0.1 |  |  |  |  |  |  |  | ~0.5 |  |  |  |  |  |  | hu23D8 (antibody, V domains shown, Humanized antibody; also called humanized 23D8) VH: EQQLLESGGGLVQPGGSLRLSCAVSGLSLSSNAINWVRQAPGKGLEWIGMIYSGGRIEYASWAKGRFTISKDSSKNTVYLQMNSLRAEDTAVYFCAKGMSPSAHSSDIWGPGTLVTVSS VL: EGVMTQSPATLSVSPGERATLSCQASQSISDNLSWYQQKPGQPPRLLIYDASDLASGVPARFSGSGSGTEFTLTISSLQSEDFAVYYCQQDWISSNVDNTFGGGTKVEIK |
|  |  | ~0.08 |  |  |  |  |  |  |  | ~0.2 |  |  |  |  |  |  | hu57B9 (antibody, V domains shown, Humanized antibody; also called humanized 57B9) VH: EQQLVETGGGLIQPGGSLRLSCAASEFTINIDYWISWVRQAPGKGLEWIGIIDPGDGTTYFAIWVSGRFTISRDTSKNTVYLQMNSLRAEDTAVYFCAREVSASAYQYDLWGPGTLVTVSS VL: ELVMTQSPATLSVSPGERATLSCQASEDIESYLAWYQQKPGQPPRLLIYFTSNLASGVPARFSGSGSGTEYTLTISSLQSEDFAVYYCQQGYRNSDVHNPFGGGTKVEIK |
|  |  | ~0.1 |  |  |  |  |  |  |  | ~0.5 |  |  |  |  |  |  | hu48H10 (antibody, V domains shown, Humanized antibody; also called humanized 48H10) VH: EQQLVETGGGLIQPGGSLRLSCAASGFTINIDYWISWVRQAPGKGLEWIGIIDPGDGTTYFAIWVSGRFTISTDNSKNTVYLQMNSLRAEDTAVYFCAREFSASAYQYDLWGPGTLVTVSS VL: ELVMTQSPATLSVSPGERATLSCQASEDIESYLTWYQQKPGQPPRLLMYRASTLSSGVPARFSASGSGTEFTLTISSLQSEDFAVYYCQQGYRNKDVDNPFGGGTKVEIK |
